Assay results reported in the RNAGym collection of RNA variant scans (doi:10.7554/elife.80360).

B1: Hairpin Ribozyme (parent)
chain: GUCCUCUUUCACGUGCGCGUGAAAGAGAGAAGUGAACCAGAGAAACACACGUUGUGGUAUAUUACCUGGUA

Variants of: B1
Assay: self-cleavage, relative activity (ratio to wild type); higher = more cleavage; co-transcriptional

Variant | self-cleavage
A22G A36C | 0.515
A22G A36U | 0.423
A22G A39C | 0.475
A22G A39U | 0.42
A22G A43C | 0.158
A22G A43G | 0.121
A22G A43U | 0.0762
A22G A45C | 0.13
A22G A47U | 0.102
A22G A49C | 0.164
A22G A49G | 0.345
A22G A59G | 0.212
A22G A61G | 0.285
A22G A64C | 0.22
A22G A71G | 0.907
A22G A71U | 0.702
A22G C50A | 0.227
A22G C65A | 0.631
A22G C66G | 0.302
A22G G27C | 0.161
A22G G27U | 0.262

Variant | self-cleavage
A22G G32A | 0.0872
A22G G32U | 0.0605
A22G G34A | 0.987
A22G G34C | 1.52
A22G G34U | 1.22
A22G G40U | 0.181
A22G G42A | 0.143
A22G G51A | 1.05
A22G G51U | 0.957
A22G G54C | 0.35
A22G G56C | 0.137
A22G G57C | 0.141
A22G G69A | 0.385
A22G G69U | 0.238
A22G U52C | 0.791
A22G U52G | 0.692
A22G U53G | 0.936
A22G U55G | 0.33
A22G U58A | 0.657
A22G U60A | 0.949
A22G U62C | 0.276

Variant | self-cleavage
A22G U70C | 0.57
A22U | 0.864
A22U A23C | 0.733
A22U A23G | 0.72
A22U A24C | 0.71
A22U A24U | 0.554
A22U A26C | 0.479
A22U A26U | 0.907
A22U A30U | 0.262
A22U A35C | 0.762
A22U A35G | 0.84
A22U A35U | 0.611
A22U A36U | 0.58
A22U A39C | 0.456
A22U A39G | 0.277
A22U A41C | 0.87
A22U A44U | 0.173
A22U A45C | 0.179
A22U A45G | 0.225
A22U A47G | 0.115
A22U A49C | 0.146

Variant | self-cleavage
A22U A49G | 0.488
A22U A59U | 0.143
A22U A64C | 0.113
A22U A71G | 0.791
A22U A71U | 0.747
A22U C46A | 0.187
A22U C48G | 0.111
A22U C48U | 0.0855
A22U C65A | 0.903
A22U C65G | 0.266
A22U C65U | 0.229
A22U C66A | 0.209
A22U C66G | 0.175
A22U G25A | 0.149
A22U G25C | 0.143
A22U G27A | 0.283
A22U G27C | 0.178
A22U G27U | 0.187
A22U G29C | 0.214
A22U G29U | 0.071
A22U G32C | 0.123
